In patent US20250122271A1, “ANTI-DKK1 ANTIBODY, PHARMACEUTICAL COMPOSITION THEREOF, AND USE THEREOF” (SHANGHAI JUNSHI BIOSCIENCES CO., LTD., priority 2022, published 2025):
Where two headings read alike, the source gives them in different places.

Tests used:
[1] = target: T1, human DKK1 antigen (Sino Biological, 10170-H08H) (human, UniProt O94907 32-266); assay: ELISA binding; FIG. 4B
T1 chain: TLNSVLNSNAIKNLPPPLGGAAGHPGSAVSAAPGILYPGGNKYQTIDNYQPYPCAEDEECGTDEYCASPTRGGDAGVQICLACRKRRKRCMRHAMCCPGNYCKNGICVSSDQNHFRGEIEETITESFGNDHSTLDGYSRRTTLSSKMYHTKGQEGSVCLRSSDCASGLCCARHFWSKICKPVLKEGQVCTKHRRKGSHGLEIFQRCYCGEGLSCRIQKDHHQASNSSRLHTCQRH

[2] = target: T1, human DKK1 antigen (Sino Biological, …); assay: ELISA blocking of DKK1-LRP6
[3] = target: T1, human DKK1 antigen (Sino Biological, …); assay: ELISA blocking of DKK1-LRP6
[4] = target: T1, human DKK1 antigen (Sino Biological, …); assay: ELISA binding; given as IC50; FIG. 4A

B1: DKN-01 (antibody, V domains shown)
VH: EVQLVESGGGLVQPGGSLRLSCAASGFTFSSYTMSWVRQAPGKGLEWVATISGGGFGTYYPDSVKGRFTISRDNAKNSLYLQMNSLRAEDTAVYYCARPGYNNYYFDIWGQGTTVTVSS
VL: EIVLTQSPATLSLSPGERATLSCHASDSISNSLHWYQQKPGQAPRLLIYYARQSIQGIPARFSGSGSGTDFTLTISSLEPEDFAVYYCQQSESWPLHFGGGTKVEIKR
With B1 the EC50 [1] was 0.0154 µg/mL, the IC50 [2] was 1.24 µg/mL and the IC50 [3] was 0.324 µg/mL. It also gave an EC50 [4] of 0.0148 µg/mL.
